From patent publication US20200347144A1 (SHANGHAI HYAMAB BIOTECH, published 2020) come the findings set out here.

Sequences and labels used below:
B1: 259G10E11 (antibody, V domains shown)
VH: QVQLVESGGGVVQPGRSLRLSCAASGFTFSSYGMHWVRQAPGKGLEWVAVIWYDGSNKYYADSVKGRFTISRDNSKNTLYLQMNSLRAEDTAVYYCARGPYLYSSGWYDYYYYGMDVWGQGTTVTVSS
VL: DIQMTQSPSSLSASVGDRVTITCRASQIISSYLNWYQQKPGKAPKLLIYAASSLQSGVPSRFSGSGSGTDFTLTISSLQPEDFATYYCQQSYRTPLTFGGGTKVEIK
B2: 11H10C9 (antibody, V domains shown)
VH: QVQLVESGGGVVQPGRSLRLSCAASGFTFSSYAMHWVRQAPGKGLEWVAIIWYDGSNQYYADSVKGRFTISRDNSMNTLYLQMNSLRAEDTAVYYCARVEQWLVSYFDFWGQGTLVTVSS
VL: EIVMTQSPATLSVSPGERATLSCRASQSVSSNLAWYQQKPGQVPRLLIYGASTRATGIPARFSGSGSGTEFTLTISSLQSEDFAVYYCQQYNNWPTFGGGTKVEIK
B3: 15G10D4 (antibody, V domains shown)
VH: B2 VH with T28S, M76K, E100K, F109Y
VL: B2 VL with T72S, T74I
B4: 263A11E3 (antibody, V domains shown)
VH: QVQLQESGPGLVKPSETLSLTCAVSGYSISSGYYWGWIRQPPGKGLEWIGSIYHSGSTSYNPSLRSRVTISVDTSKNQFSLKLSSVTAADTAVYYCARDAGGFDYWGQGTLVTVSS
VL: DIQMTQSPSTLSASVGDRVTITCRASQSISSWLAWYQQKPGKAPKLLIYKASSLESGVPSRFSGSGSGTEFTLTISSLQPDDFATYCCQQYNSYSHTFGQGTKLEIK

Substitutions are numbered along the chain they refer to.

The first experiment deals with T1, human 4-1BB, full length, on transfected cells (human, UniProt Q07011 24-255).
T1 construct: whole, on cells; also called CHOK1-h4-1BB
T1 sequence (Q07011 24-255): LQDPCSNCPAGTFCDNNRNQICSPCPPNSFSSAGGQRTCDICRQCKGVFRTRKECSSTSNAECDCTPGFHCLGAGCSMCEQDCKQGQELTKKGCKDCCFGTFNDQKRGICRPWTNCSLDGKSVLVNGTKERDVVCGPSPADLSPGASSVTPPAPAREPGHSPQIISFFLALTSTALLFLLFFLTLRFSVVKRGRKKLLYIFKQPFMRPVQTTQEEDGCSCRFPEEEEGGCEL
Description: FACS, CHOK1-h4-1BB cells; Ab 0.00064 ug/ml. The procedure, abridged: (§1)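 CHOK1 stable lines expressing human or monkey 4-1BB were detached with enzyme-free Versene, blocked in 1% goat serum on ice for 30 min and resuspended at 2×10⁶ cells/mL in HBSS with 1% BSA. Purified antibody was bound on ice for 2 h, then cells were fixed in 4% paraformaldehyde and analysed by flow cytometry.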
Background: In flow cytometry, cells or beads pass a laser one at a time.
Molecule B1 yielded an average fluorescence intensity of 7.1 MFI.

For the molecule B2, the average fluorescence intensity amounted to 6.4 MFI.

Molecule B3 returned an average fluorescence intensity of 9.3 MFI.

Turning to B4, the average fluorescence intensity was 8 MFI.

The target of a further experiment is T2, hFc-tagged human 4-1BB extracellular domain protein (4-1BB-hFc) (human, UniProt Q07011 24-186, limits assumed).
T2 construct: also called immunogen A; 4-1BB^ECD-hFc; not shown: human IgG Fc fragment (hFc) of the pCpC vector
Description: ELISA: human 4-1BB-hFc coated at 1.0 µg/mL, antibody titrated, HRP secondary antibody, OD450. The method, then:
(§2) The purified immunogen A (4-1BB-hFc), monkey 4-1BB-his, and mouse 4-1BB-his obtained in Example 1 [for the preparation method, see step 1 of Example 1, preparation of immunogen A], of which the extracellular domain of monkey-derived 4-1BB protein (purchased from ACRO biosystems), the extracellular domain of mouse 4-1BB protein (purchased from sino biological) or other immune detection point proteins respectively were diluted with PBS to a final concentration of 1.0 μg/mL, then added with […] per well to 96-well ELISA plate. It was sealed with plastic film and incubated at 4° C. overnight. The next day, the plate was washed twice with the plate-washing solution [PBS containing 0.01% (v/v) Tween20] and blocking solution [PBS containing 0.01% (v/v) Tween 20 and 1% (v/v) BSA] was added and blocked at room temperature for 2 hours. The blocking solution was discarded and 100 μl of the purified 4-1BB antibody obtained in Example 2 was added per well. After incubated at 37° C. for 2 hours, the plate was washed 3 times with a plate-washing solution [PBS containing 0.01% (v/v) Tween20]. A secondary antibody (purchased from Sigma) labeled with HRP (horseradish peroxidase) was added, and after incubated at 37° C. for 2 hours, the plate was washed 3 times with a plate-washing solution [PBS containing 0.01% (v/v) Tween20]. 100 μl of TMB substrate was added per well. After incubated for 30 minutes at room temperature, 100 μl of stop buffer (1.0N HCl) was added per well. The A450 nm values were read using an ELISA plate reader (SpectraMax 384plus, Molecular Device).
(ELISA stands for enzyme-linked immunosorbent assay.)
The term EC50 (read off the curve) denotes the concentration giving half of the maximal effect. With B1, the “EC50 (read off the curve)” value was roughly 0.02 µg/mL.

For the molecule B2, the “EC50 (read off the curve)” value is roughly 0.02 µg/mL.

Turning to B3, the “EC50 (read off the curve)” value was roughly 0.02 µg/mL.

Turning to B4, the 50% effective concentration (EC50 (read off the curve)) is roughly 0.02 µg/mL.

Another experiment has as its target T3, monkey 4-1BB on CHOK1 cells (monkey).
T3 construct: whole, on cells; also called CHOK1-c4-1BB
Kind of experiment: FACS, CHOK1-c4-1BB cells; Ab 0.00064 ug/ml. The method in brief:
as §1
Molecule B1 came in with an average fluorescence intensity of 2.9 MFI.

For B2, the average fluorescence intensity was 3.7 MFI.

B3: the average fluorescence intensity amounted to 4.8 MFI.

As for B4, the average fluorescence intensity is 2.8 MFI.

The target of another experiment is T3, monkey 4-1BB on CHOK1 cells. Description: FACS, CHOK1-c4-1BB cells; Ab 10 ug/ml. The procedure, abridged: as §1
As to B1, the average fluorescence intensity turned out to be 126 MFI.

For B2, the average fluorescence intensity stood at 736 MFI.

On to B3, for which the average fluorescence intensity came to 550 MFI.

The molecule B4 yielded an average fluorescence intensity of 124 MFI.

The target in a further experiment is T2, hFc-tagged human 4-1BB extracellular …. Description: ELISA, coated human 4-1BB-hFc; Ab 0.0006 ug/ml. As for the experimental part: as §2
Molecule B1 registered an OD450 nm of 0.11 OD450 nm.

For B2, the OD450 nm came to 0.19 OD450 nm.

Consider B3, for which the OD450 nm is 0.19 OD450 nm.

B4 showed an OD450 nm of 0.1 OD450 nm.

For the next experiment the target is unchanged. Description: ELISA, coated human 4-1BB-hFc; Ab 0.016 ug/ml. The method, then:
as §2
The molecule B1 came in with an OD450 nm of 1.29 OD450 nm.

Take B2: the OD450 nm is 1.55 OD450 nm.

As for B3, the OD450 nm stood at 1.72 OD450 nm.

Turning to B4, the OD450 nm turned out to be 1.23 OD450 nm.

The target in another experiment is T1, human 4-1BB, full length, on …. Description: FACS, CHOK1-h4-1BB cells; Ab 2 ug/ml. The procedure, abridged:
as §1
B1 had an average fluorescence intensity of 803 MFI.

Molecule B2 yielded an average fluorescence intensity of 520 MFI.

For B3, the average fluorescence intensity turned out to be 521 MFI.

The molecule B4 showed an average fluorescence intensity of 1690 MFI.

The target in another experiment is T3, monkey 4-1BB on CHOK1 cells. Kind of experiment: FACS, CHOK1-c4-1BB cells; Ab 0.016 ug/ml. The method in brief: as §1
On to B1, for which the average fluorescence intensity was 9.3 MFI.

For B2, the average fluorescence intensity came to 24.7 MFI.

In turn, B3 had an average fluorescence intensity of 37.3 MFI.

The molecule B4 yielded an average fluorescence intensity of 8 MFI.

The target in another experiment is T1, human 4-1BB, full length, on …. Description: FACS, CHOK1-h4-1BB cells; Ab 10 ug/ml. The method in brief:
as §1
As for B1, the average fluorescence intensity was determined as 827 MFI.

B2 displayed an average fluorescence intensity of 498 MFI.

On to B3, for which the average fluorescence intensity was determined as 532 MFI.

Regarding B4, the average fluorescence intensity stood at 1780 MFI.

The target in a further experiment is T3, monkey 4-1BB on CHOK1 cells. Description: FACS, CHOK1-c4-1BB cells; Ab 2 ug/ml. The method in brief: as §1
The molecule B1 gave an average fluorescence intensity of 107 MFI.

Turning to B2, the average fluorescence intensity came out at 576 MFI.

Regarding B3, the average fluorescence intensity is 646 MFI.

B4 gave an average fluorescence intensity of 93.5 MFI.

For another experiment the target is unchanged. Description: FACS, CHOK1-c4-1BB cells; Ab 0.0032 ug/ml. The method in brief:
as §1
The molecule B1 had an average fluorescence intensity of 4.3 MFI.

Turning to B2, the average fluorescence intensity was 10.4 MFI.

B3 showed an average fluorescence intensity of 12 MFI.

Molecule B4 yielded an average fluorescence intensity of 3.8 MFI.

Another experiment has as its target T2, hFc-tagged human 4-1BB extracellular …. Kind of experiment: ELISA, coated human 4-1BB-hFc; Ab 0.4 ug/ml. The method, then: as §2
B1 showed an OD450 nm of 2.79 OD450 nm.

In the case of B2, the OD450 nm was determined as 3.58 OD450 nm.

Molecule B3 returned an OD450 nm of 3.55 OD450 nm.

As for B4, the OD450 nm turned out to be 2.75 OD450 nm.

Another experiment has the same target. Kind of experiment: ELISA, coated human 4-1BB-hFc; Ab 2 ug/ml. The method, then: as §2
B1 registered an OD450 nm of 2.8 OD450 nm.

Turning to B2, the OD450 nm was found to be 3.59 OD450 nm.

On to B3, for which the OD450 nm worked out at 3.61 OD450 nm.

For B4, the OD450 nm is 2.74 OD450 nm.

The target in the next experiment is T1, human 4-1BB, full length, on …. Kind of experiment: FACS on CHOK1-h4-1BB cells, Alexa 488 secondary antibody, average fluorescence intensity. An excerpt:
The pIRES plasmid carrying the full-length gene of monkey-derived […] (the preparation method is the same as the preparation method of the pCpC vector carrying the human-derived IgG Fc fragment (hFc) in “Preparation of immunogen A” of the step (1) in Example 1, in which the database accession number of the amino acid sequence of the extracellular region of monkey 4-1BB protein (Phe19-Thr239) is G7PSE7) was transfected into CHOK1 cell line to obtain CHOK1 stable transfected cell line containing monkey 4-1BB (herein referred to as CHOK1-c4-1BB stable cell line). The CHOK1-h4-1BB stable cell line and the CHOK1-c4-1BB stable cell line were expanded and cultivated to 90% confluence in T-75 cell culture flasks. The medium was exhausted, and washed twice with HBSS buffer (Hanks Balanced Salt Solution, purchased from Invitrogen), and then the cells were treated and collected with enzyme-free cell dissociation solution (Versene solution, purchased from Life Technology). The cells were washed twice with HBSS buffer, and after cell counting, the cells were diluted with HBSS buffer to 2×10⁶ cells per ml, and 1% goat serum blocking solution was added, the percentage being the mass percentage. It was incubated on ice for 30 minutes, and then washed twice with HBSS buffer by centrifugation. The collected cells were suspended in FACS buffer (HBSS containing 1% BSA, the percentage was the mass percentage) to 2×10⁶ cells/mL, and 100 μl per well was added to a 96-well FACS reaction plate. The purified 4-1BB antibody test sample obtained in Example 2 was added, 100 microliters per well and incubated on ice for 2 hours. […] It was washed three times with FACS buffer by centrifugation, and 100 μl of fixative [4% (v/v) paraformaldehyde] per well was added to suspend cells, and washed twice with FACS buffer after 10 minutes by centrifugation. The cells were suspended with 100 microliters of FACS buffer, and the results were detected and analyzed with FACS (FACS Calibur, purchased from BD).
As to B1, the “EC50 (read off the curve)” value is roughly 0.2 µg/mL.

Regarding B2, the “EC50 (read off the curve)” value is roughly 0.1 µg/mL.

As for B3, the “EC50 (read off the curve)” value was roughly 0.05 µg/mL.

On to B4, for which the “EC50 (read off the curve)” value was roughly 0.3 µg/mL.
